B1: MBP-Atg11(522-583) (domain or fragment, S. pombe, UniProt O14261 522-583, looked up)
chain: SSQPFYRVSPSIVPLNVIRKLTNRKTSFTDSHILRLQDEVNQLRNELDLVNKRNEDLLIELQ
B2: GST-fused Atg11(522-544) (domain or fragment, S. pombe, UniProt O14261 522-544, looked up)
chain: SSQPFYRVSPSIVPLNVIRKLTN

How the values were obtained:
SEC = biological target: the molecule itself; test: SEC
HA-fused Atg1(593-830) = HA-fused Atg1(593-830) (S. pombe, UniProt Q9Y7T4 593-830); test: pull-down
Sequence of HA-fused Atg1(593-830) (Q9Y7T4 593-830): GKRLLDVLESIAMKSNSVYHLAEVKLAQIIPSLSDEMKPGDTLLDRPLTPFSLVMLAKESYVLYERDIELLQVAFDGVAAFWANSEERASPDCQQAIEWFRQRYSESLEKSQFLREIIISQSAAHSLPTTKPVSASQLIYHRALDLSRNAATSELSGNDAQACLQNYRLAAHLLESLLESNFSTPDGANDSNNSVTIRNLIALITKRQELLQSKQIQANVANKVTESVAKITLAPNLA

Row | Binder | stoichiometry N (SEC) | binding result (HA-fused Atg1(593-830))
1 | B1 | 2 | 
2 | B2 |  | binds
